Assay results from IntAct's records for PubMed 23569223.

B1: Torsin-1A (Homo sapiens), O14656 (parent)
chain: MKLGRAVLGLLLLAPSVVQAVEPISLGLALAGVLTGYIYPRLYCLFAECCGQKRSLSREALQKDLDDNLFGQHLAKKIILNAVFGFINNPKPKKPLTLSLHGWTGTGKNFVSKIIAENIYEGGLNSDYVHLFVATLHFPHASNITLYKDQLQLWIRGNVSACARSIFIFDEMDKMHAGLIDAIKPFLDYYDLVDGVSYQKAMFIFLSNAGAERITDVALDFWRSGKQREDIKLKDIEHALSVSVFNNKNSGFWHSSLIDRNLIDYFVPFLPLEYKHLKMCIRVEMQSRGYEIDEDIVSRVAEEMTFFPKEERVFSDKGCKTVFTKLDYYYDD

Variants of: B1
Settings: with toip2_human TOR1AIP2, Q8NFQ8

**Q.** How did the “effect of a mutation on the interaction” value turn out when MKLGRAVLGLLLLAPSVVQAVEPISLGLALAGVLTGYIYPRLYCLFAECCGQKRSLSREALQKDLDDNLFGQHLAKKIILNAVFGFINNPKPKKPLTLSLHGWTGTGKNFVSKIIAENIYEGGLNSDYVHLFVATLHFPHASNITLYKDQLQLWIRGNVSACARSIFIFDQMDKMHAGLIDAIKPFLDYYDLVDGVSYQKAMFIFLSNAGAERITDVALDFWRSGKQREDIKLKDIEHALSVSVFNNKNSGFWHSSLIDRNLIDYFVPFLPLEYKHLKMCIRVEMQSRGYEIDEDIVSRVAEEMTFFPKEERVFSDKGCKTVFTKLDYYYDD [E171Q] was run?
**A.** with no effect

Variants of: B1
Settings: with toip1_human TOR1AIP1, Q5JTV8
toip1_human TOR1AIP1, Q5JTV8, sequence (Q5JTV8 whole entry): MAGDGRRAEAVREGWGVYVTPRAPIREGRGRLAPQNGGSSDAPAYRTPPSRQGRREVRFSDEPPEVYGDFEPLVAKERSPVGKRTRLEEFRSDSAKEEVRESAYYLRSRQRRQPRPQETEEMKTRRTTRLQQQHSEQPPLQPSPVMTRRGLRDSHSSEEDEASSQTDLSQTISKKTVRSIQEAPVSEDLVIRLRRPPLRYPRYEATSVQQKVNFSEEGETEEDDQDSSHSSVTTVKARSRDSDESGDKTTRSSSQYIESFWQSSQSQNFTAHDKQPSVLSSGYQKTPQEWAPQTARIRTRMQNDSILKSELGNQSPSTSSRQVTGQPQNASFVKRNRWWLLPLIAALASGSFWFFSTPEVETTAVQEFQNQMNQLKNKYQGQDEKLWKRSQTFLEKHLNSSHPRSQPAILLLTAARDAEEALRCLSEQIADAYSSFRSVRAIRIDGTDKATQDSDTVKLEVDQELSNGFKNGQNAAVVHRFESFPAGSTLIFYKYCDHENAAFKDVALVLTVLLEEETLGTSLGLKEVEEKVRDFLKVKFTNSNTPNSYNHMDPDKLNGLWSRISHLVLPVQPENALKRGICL

**Q.** MKLGRAVLGLLLLAPSVVQAVEPISLGLALAGVLTGYIYPRLYCLFAECCGQKRSLSREALQKDLDDNLFGQHLAKKIILNAVFGFINNPKPKKPLTLSLHGWTGTGKNFVSKIIAENIYEGGLNSDYVHLFVATLHFPHASNITLYKDQLQLWIRGNVSACARSIFIFDQMDKMHAGLIDAIKPFLDYYDLVDGVSYQKAMFIFLSNAGAERITDVALDFWRSGKQREDIKLKDIEHALSVSVFNNKNSGFWHSSLIDRNLIDYFVPFLPLEYKHLKMCIRVEMQSRGYEIDEDIVSRVAEEMTFFPKEERVFSDKGCKTVFTKLDYYYDD [E171Q] was tested. Which “effect of a mutation on the interaction” value did it give?
**A.** with no effect
